Measurements reported in article PMC10998878, “Inhibition of acyl-CoA binding protein (ACBP) by means of a GABAARγ2-derived peptide” (Cell Death & Disease, 2024).
Where no end group is shown, it is not given here.

Key:
Huh-7 cells = experiment: WST-8 conversion (metabolic activation) by Huh-7 cells; format: cell-based, human; settings: for effect on RecACBP/DBI-stimulated WST-8 conversion: then RecACBP/DBI 4 h, n = 4
Protocol: Media and cell culture supplements were purchased from Gibco-Invitrogen (Carlsbad, CA, USA). Plasticware was purchased from Corning B.V. Life Sciences (Schiphol-Rijk, The Netherlands). Unless reported otherwise, the cell line used in this study was cultured at standard conditions (37 °C, 5% CO2, Dulbecco’s modified Eagle’s medium containing 10% fetal bovine serum, 10 mM HEPES buffer, 100 mg/L sodium pyruvate, 100 U/mL penicillin G sodium, and 100 µg/mL streptomycin sulfate). 2-deoxy-D-glucose (# D8375) and rotenone (# R8875) were purchased from Sigma (Burlington, MA, USA). Human hepatocellular carcinoma (Huh-7) cell line was used for in vitro experiments. Cells were plated in 6- or 96-well plates and grown for 24 h before treatments.
(§1) WST-8 conversion assays were conducted utilizing the Cell Counting Kit-8 (Sigma-Aldrich, #96992). Cells were seeded in a 96-well plate at a density of 3000 cells per well and incubated overnight for adherence. Then, the culture medium was removed, and fresh medium containing the specified treatments was added to the wells. Immediately following the addition of treatments, 10 μL of CCK-8 reagent was introduced to each well. Subsequently, the cells were incubated for 4.5 h at 37 °C to facilitate the conversion of WST-8 in response to cellular activity. Following the incubation period, the absorbance at 450 nm was quantified using a VICTOR® Nivo™ microplate reader. This measurement served as an indicator of WST-8 conversion, reflecting cellular metabolic activity.
Fig. 6 Inhibition of the metabolic effects of ACBP/DBI on hepatocytes by the GABAARγ2-derived eicosapeptide. A WST-8 conversion by murine primary hepatocytes treated with increasing concentrations of recombinant ACBP/DBI protein (RecACBP/DBI) for 4 h. Hepatocytes were isolated from tamoxifen-induced Acbp/Dbi f/f or Acbp/Dbi KO full-body genetic background mice (white- or blue-colored graphs respectively). […] For statistical analysis p values are calculated by one-way ANOVA. B WST-8 conversion by control (shUNR) and ACBP/DBI-knocked down (shACBP/DBI) human Huh-7 cells treated with increasing concentrations of RecACBP/DBI for 4 h. shUNR and shACBP/DBI cells are represented by white- or blue-colored graphs respectively. […] C WST-8 conversion by Huh-7 cells treated with RecACBP/DBI or negative control (4 h). Cells were pre-treated with 2-deoxy-D-glucose (2-Deoxy-D-glu; 300 µM) or vehicle (2 h). […] D WST-8 conversion by Huh-7 cells treated with RecACBP/DBI or negative control (4 h). Cells were pre-treated with rotenone (0.5 µM) or vehicle (2 h). […] E WST-8 conversion by Huh-7 cells treated with RecACBP/DBI or negative control (4 h). Prior to administration, RecACBP/DBI was overnight pre-incubated with monoclonal antibody (α-ACBP/DBI) or isotype IgG1. […] F WST-8 conversion by Huh-7 cells treated with RecACBP/DBI or negative control (4 h). Prior to administration, RecACBP/DBI was overnight pre-incubated with GABAARγ2 (WT or F77I-mutated) eicosapeptides.

[1] = test system: native ACBP/DBI protein (mouse liver extracts); experiment: Pull down / immunoprecipitation of native ACBP/DBI from liver extracts; format: binding; settings: mouse liver protein extract (500 μg), peptide-coated beads, overnight 4 °C, immunoblot for ACBP
Protocol: The physical interaction between the native ACBP and GABAARγ2 peptides was examined by standard immunoprecipitation (IP) and immunoblotting protocols. In detail, liver protein extracts (500 μg) were immunoprecipitated on protein A/G-Sepharose beads (Merck Millipore, Burlington, MA, USA, #GE17-0618-01) coated with (1× 2× 4×) either GABAARγ2 wild type (WT) or mutated (F77I) eicosapeptide (Biosynth ltd) or its negative control (PBS). Each IP reaction was incubated overnight (4 °C) in a rotation chamber followed by three consecutive rounds of PBS washing the next day. Each washing round included a PBS resuspension of the pellet and a re-centrifugation (12,000 × g, 4 °C). Finally, beads were resuspended in 20 μL of NUPAGE 4× buffer (Life Technologies, CA, USA, #NP0008), heated at 100 °C (10 min), followed by standard immunoblotting for the ACBP protein (Abcam #ab231910).
Fig. 5 Biophysical and biochemical detection of a direct interaction between ACBP/DBI and the GABAARγ2-derived eicosapeptide. A Schematic representation of the GABAAR and the GABAARγ2-derived eicosapeptides. B Surface plasmon resonance kinetics of ACBP-GABAARγ2-derived eicosapeptide (WT and F77I) interactions. Representative ACBP immunoblot (C) from control- or GABAARγ2-immunoprecipitated samples. Anti-GABAARγ2 immunoprecipitation (IP) assay was employed in order to validate the GABAARγ2 WT peptide interaction with native ACBP (in murine hepatic protein extracts), and quantification (D). […] For statistical analysis p value (indicating statistical comparisons with the control condition) was calculated by Mann–Whitney U-test. E Anti-GABAARγ2 IP assay to address the physical interaction between GABAARγ2 peptides and murine hepatic ACBP protein. Interaction was validated using an increasing gradient of biotinylated WT/F77I peptides that were bound on the surface of streptavidin beads as part of the IP assay. […]

[2] = target: T1, recombinant murine ACBP/DBI (acyl-CoA binding protein / diazepam binding inhibitor) (mouse, UniProt P31786 1-87, biotin (site not stated; for the SPR chip)); experiment: SPR; Biacore 2000; biotinylated ACBP/DBI immobilised on SA chip (1600 RU); peptides injected at 10 µM and 100 µM in HBS-EP, 30 µL/min, 25 °C; association 4 min, dissociation 5 min; control surface streptavidin alone; settings: both partners purified
T1 construct: Biotinylated for immobilisation on the SA chip; in the food intake experiment murine RecACBP/DBI was injected and no biotin is mentioned; also called RecACBP/DBI; recombinant ACBP/DBI; source: recombinant, from the Institute of Psychiatry and Neuroscience of Paris, France
T1 sequence (looked up): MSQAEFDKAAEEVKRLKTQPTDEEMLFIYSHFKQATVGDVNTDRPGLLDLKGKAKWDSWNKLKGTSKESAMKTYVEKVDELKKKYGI

[3] = test system: primary mouse hepatocytes; experiment: WST-8 conversion (metabolic activation) by primary hepatocytes; format: cell-based; settings: Acbp/Dbi f/f and KO, increasing concentrations of RecACBP/DBI, 4 h (text: within 4.5 h), n = 3
Protocol: After filtration through a 100 µm cell strainer and successive centrifugations at 30 × g, 4 °C for 5 min, cells were resuspended in the following attachment culture medium: DMEM/F12, 20 mM HEPES (pH = 7.4), 5 mM glucose, 10% FBS (Sigma), 5 mg/mL BSA, 100 U/mL penicillin, and 100 μg/mL streptomycin. The cells were then purified by density gradient centrifugation using an isotonic solution of Percoll (GE Healthcare Bio-Sciences AB, Uppsala, Sweden). Cell viability was assessed using Trypan blue exclusion. Cells were plated in a 96-well plate overnight to facilitate cell attachment before proceeding with experiments.
as §1, with “Subsequently, the cells were incubated for 4.5 h at 37 °C to facilitate the conversion of WST-8 in response to cellular activity.” left out, “This measurement served as an indicator of WST-8 conversion, reflecting cellular metabolic activity.” left out
Fig. 6 Inhibition of the metabolic effects of ACBP/DBI on hepatocytes by the GABAARγ2-derived eicosapeptide. […] For statistical analysis p values are calculated by one-way ANOVA. […]

C57BL/6 mice = experiment: Food intake after intravenous injection; format: in vivo, mouse; settings: i.v., 0.5 mg/kg, after 24 h starvation, cumulative food intake 30 min, n = 4 to 9
Protocol: Prior to experimentation, mice were subjected to 24 h starvation followed by individual housing and acclimatization in individual cages (2 h). Subsequently, mice were intravenously (i.v.) injected with recombinant ACBP/DBI protein (RecACBP/DBI) (total volume of 200 μL, 0.5 mg/kg body weight), either alone or in combination with GABAARγ2 peptides (5× molar excess). Cumulative food intake was then analyzed as previously described. Prior to i.v. injections, the RecACBP mixes were pre-incubated (16 h, 4 °C) with GABAARγ2 peptides.

## O=CC[C@@H](O)[C@H](O)[C@H](O)CO [2-deoxy-D-glucose, reference compound]
Huh-7 cells; pre-treated with 2-deoxy-D-glucose 300 µM for 2 h
  effect on RecACBP/DBI-stimulated WST-8 conversion: abolished

## C=C(C)[C@H]1Cc2c(ccc3c2O[C@@H]2COc4cc(OC)c(OC)cc4[C@@H]2C3=O)O1 [rotenone, reference compound]
Huh-7 cells; pre-treated with rotenone 0.5 µM for 2 h
  effect on RecACBP/DBI-stimulated WST-8 conversion: abolished

## Biotinylated GABAARγ2-EP-WT: Biotinylated GABAARγ2-EP-WT immobilized on streptavidin-precoated beads (INMEYTIDIFFAQTWYDRRL; also: biotin, site not given here)
[1]
  pull down of endogenous/native ACBP/DBI, in words: absorbed endogenous ACBP/DBI protein from mouse liver extracts

B1: GABAARγ2-derived eicosapeptide, wild type (GABAARγ2-EP-WT) (peptide)
peptide: INMEYTIDIFFAQTWYDRRL
notes: GABAA receptor gamma-2 subunit (GABRG2), 20-mer with F77 in position 10; 100% identical in zebrafish, chicken, mouse and human; Stocked in DMSO at 1 mg/mL; used without a stated biotin in SPR and in the functional tests; also called GABAARγ2 WT peptide; WT EP; source: synthetic peptide (Biosynth ltd)
[2]
  binding result: binds

B2: recombinant ACBP/DBI protein: recombinant acyl-CoA binding protein encoded by diazepam binding inhibitor (protein)
chain: MSQAEFDKAAEEVKRLKTQPTDEEMLFIYSHFKQATVGDVNTDRPGLLDLKGKAKWDSWNKLKGTSKESAMKTYVEKVDELKKKYGI
modifications: biotin (site not stated; for the SPR chip)
[3]
  WST-8 conversion, metabolic activation by the substance: increase in the capacity to reduce
C57BL/6 mice
  food intake / appetite, effect of recombinant ACBP/DBI: induced an increase in appetite
Huh-7 cells; shUNR and shACBP/DBI, increasing concentrations of RecACBP/DBI, 4 h (text: within 4.5 h), n = 8–9
  WST-8 conversion, metabolic activation by the substance: increase in the capacity to reduce
